The Human Domainome abundance scans (Beltran et al. 2025)

B1: Peroxisome proliferator-activated receptor delta, residues 71 to 145; numbered along this chain, Q03181 (parent)
chain: NMECRVCGDKASGFHYGVHACEGCKGFFRRTIRMKLEYEKCERSCKIQKKNRNKCQYCRFQKCLALGMSHNAIRF

Variants of: B1
Experiment: abundance fitness (aPCA) (normalised: wild type 0, dead -1); higher = more abundant; growth selection in yeast, the domain comes from the species named
Conditions: Homo sapiens

Abundance fitness: each site, then its substitutions
N51: E 0.055, S -0.052, A -0.154, F -0.028, C -0.451, I -0.016, V -0.17, P -0.307, D 0.086, Q -0.042, Y -0.363, T -0.002, R -0.395, G -0.129, M -0.026, K -0.212, W -0.408, L -0.133, H -0.071
K40: I 0.061, M -0.09, T -0.154, L -0.077, Q -0.05, S -0.255, G -0.472, P -0.117, V 0.026, R -0.095, W -0.348, E -0.113, D -0.408, C -0.216, Y -0.088, F 0.02, H 0.08, N -0.225
R33: N 0.082, C 0.11, S 0.168, T 0.129, W -0.108, Y -0.019, H -0.091, G -0.038, L 0.089, M 0.088, F 0.208, E 0.18, D 0.177, P -0.972, V 0.072, Q 0.058
T31: P -1.16, R -0.778, V -0.394, S -0.043, Y -0.46, W -0.588, Q -0.792
C41: W -0.774, F -0.398, L -1.27, A -1, R -0.694, V -0.645, G -0.684, Y -0.816, S -0.945, E -0.729, P -0.093, H -0.361
K35: R -0.026, D -0.028, M -0.079, F -0.339, L -0.495, W -0.535, A -0.054, P -0.509, H -0.169, Y -0.456, Q 0.093, T -0.272, V -0.33, E 0.063, I -0.655, C -0.015, S 0.013, N 0.04
R43: H -0.07, C -0.138, F 0.082, M -0.043, I -0.349, K 0.078, V -0.158, T -0.161, S -0.045, D -0.149, W -0.252, A -0.064, P -0.168, G -0.085, Q 0.111, N 0.223, E 0.013
S44: I -0.212, V -0.086, W -0.314, H 0.073, L -0.038, K 0.12, T -0.049, A -0.045, Y 0.061, F -0.005, Q 0.069, E 0.139, G 0.055, M 0.028, C -0.164, P -0.134, R -0.05, D 0.055
I47: S -0.287, C -0.51, K -0.453, M -0.132, R -0.502, G -0.269, V 0.004, H -0.589, F -0.246, T -0.253, N -0.4, E -0.235, D -0.126, Y -0.419, W -0.316
C45: D -1.01, G -0.787, M -0.548, I -0.842, N -0.835, L -0.766, Q -0.884, H -0.218, V -0.84, Y -0.374, S -0.743, T -1, P -0.876, R -0.768, F -0.647, K -0.927, E -0.838, W -0.864
E37: F -0.227, V -0.042, L -0.16, A -0.13, Y -0.326, M -0.164, H -0.067, K -0.038, G -0.319
